We go through three molecules from patent US7319140 (SCHERING, dated 2008).

Assay [1] concerns the target T1, CD94/NKG2C receptor (disulfide-linked heterodimer) (human, UniProt Q13241 1-179; P26717 1-231).
T1 construct: whole, on cells; Expressed in Ba/F3 transfectants; also called CD94/NKG2C heterodimer
Description: summary of example XII.

Another assay deals with T2, KIR2DS2 (human, UniProt P43631 22-304).
T2 construct: whole, on cells; Expressed in Ba/F3 or Jurkat transfectants; also called NKAT5
Description: co-immunoprecipitation from 125I-labelled Ba/F3 transfectants. The source says: Unlike CD94/NKG2C, KIR2DS2 molecules are expressed on the cell surface in the absence of DAP12, although they are unable to induce cellular activation (Bléry, et al. (1997) *J. Biol. Chem.* 272:8989-8996; Lanier, et al. (1998) *Nature* 391:703-707). KIR2DS2+ Ba/F3 cells were infected with retroviruses encoding either wild-type FLAG-DAP12 or the D-A transmembrane FLAG-DAP12 mutant receptor. Both KIR2DS2 and the mutant DAP12 protein were expressed on the cell surface. […] Like NKG2A and NKG2C, the KIR2DS2 protein has a counterpart, KIR2DL2, that lacks a charged amino acid in the transmembrane and contains an ITIM in its cytoplasmic domain. It has been previously reported that KIR2DL2 is unable to associate with DAP12 (Lanier, et al. (1998) *Nature* 391:703-707). Collectively, these findings indicate that the association of DAP12 with either KIR2DS2 or CD94/NKG2C complexes likely results from interactions involving the transmembrane domains of these proteins.

A further assay deals with T3, Ly49D (mouse, UniProt Q60651 1-263).
T3 construct: whole, on cells; Expressed in Ba/F3 transfectants; also called mouse Ly49D
T3 sequence (looked up): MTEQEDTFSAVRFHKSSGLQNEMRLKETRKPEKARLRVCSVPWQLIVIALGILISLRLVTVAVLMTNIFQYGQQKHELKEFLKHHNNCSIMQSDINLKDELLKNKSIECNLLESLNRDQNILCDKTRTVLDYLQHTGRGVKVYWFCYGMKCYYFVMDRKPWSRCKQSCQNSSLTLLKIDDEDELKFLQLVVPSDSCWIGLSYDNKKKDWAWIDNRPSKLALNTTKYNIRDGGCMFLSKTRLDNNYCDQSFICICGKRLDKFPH
Description: co-immunoprecipitation from transfected Ba/F3 cells. The source says:
(§1) Transcripts of Ly49D and Ly49H are present in IL-2 activated NK cells (20). Ly49D is expressed on ~50% of NK cells (Mason, et al. (1996) *J. Exp. Med.* 184:2119), and is associated with a tyrosine phosphoprotein of 16 kD (Mason, et al. (1998) *J. Immunol.* 160:4148-4152). Murine NK cells, like human NK cells, transcribe mRNA for DAP12, a molecule which associates with the activating KIR2DS and mediates cellular activation (Lanier, et al. (1998) *Nature* 391:703). To examine if Ly49D or Ly49H associated with DAP12, Ba/F3 cells were stably transfected with an epitope-tagged mouse DAP12 (DAP12-FLAG). […] Ba/F3 or the Ba/F3-DAP12 transfectants were then infected with retroviruses encoding either Ly49D, a myc epitope tagged Ly49H (Ly49H-myc), or as a control Ly49A. Neither Ly49D nor Ly49H-myc was expressed at appreciable levels on the cell surface when transfected into Ba/F3 cells.
(§2) To confirm that Ly49D and Ly49H non-covalently associate with DAP12 at the cell surface, Ly49D/DAP12-FLAG or Ly49H-myc/DAP12-FLAG Ba/F3 transfectants were surface iodinated, lysed with digitonin, and immunoprecipitates were analyzed by SDS-PAGE.

The target of assay [2] is T4, myc epitope tagged Ly49H (Ly49H-myc) (mouse, UniProt Q60682 1-266).
T4 construct: whole, on cells; Expressed in Ba/F3 transfectants; also called mouse Ly49H
T4 sequence (looked up): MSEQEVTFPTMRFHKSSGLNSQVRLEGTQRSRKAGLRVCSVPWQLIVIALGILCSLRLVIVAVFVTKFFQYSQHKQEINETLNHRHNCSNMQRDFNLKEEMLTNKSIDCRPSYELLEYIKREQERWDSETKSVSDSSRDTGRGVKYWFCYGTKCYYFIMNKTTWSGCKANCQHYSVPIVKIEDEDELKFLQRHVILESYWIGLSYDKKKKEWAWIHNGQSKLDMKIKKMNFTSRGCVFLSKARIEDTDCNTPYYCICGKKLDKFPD
Described as above.
Text: as §1, §2

Numbering of substitutions follows the chain as printed.

T1 sequence (Q13241 whole entry, chain 1 of 2): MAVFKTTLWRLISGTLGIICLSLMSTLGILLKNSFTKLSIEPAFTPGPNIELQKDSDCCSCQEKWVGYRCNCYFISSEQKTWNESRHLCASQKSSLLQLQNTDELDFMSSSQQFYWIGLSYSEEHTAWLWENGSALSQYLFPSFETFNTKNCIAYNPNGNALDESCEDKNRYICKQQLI
T1 sequence (P26717 whole entry, chain 2 of 2): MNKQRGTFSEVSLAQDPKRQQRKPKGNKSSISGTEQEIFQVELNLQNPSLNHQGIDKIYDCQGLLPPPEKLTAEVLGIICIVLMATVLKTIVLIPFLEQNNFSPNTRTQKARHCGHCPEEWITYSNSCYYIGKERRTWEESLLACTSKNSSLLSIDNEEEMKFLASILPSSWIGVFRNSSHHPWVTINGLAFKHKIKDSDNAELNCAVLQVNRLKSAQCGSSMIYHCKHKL
T2 sequence (P43631 22-304): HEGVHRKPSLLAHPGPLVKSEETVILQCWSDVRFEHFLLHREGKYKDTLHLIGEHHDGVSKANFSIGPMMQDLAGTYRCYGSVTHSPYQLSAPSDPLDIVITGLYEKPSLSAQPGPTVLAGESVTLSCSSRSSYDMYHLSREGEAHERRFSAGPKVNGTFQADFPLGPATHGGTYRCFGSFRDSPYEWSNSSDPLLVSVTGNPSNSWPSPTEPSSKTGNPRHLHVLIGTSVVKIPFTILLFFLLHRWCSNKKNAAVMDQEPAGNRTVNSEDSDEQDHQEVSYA

B1: DAP12-FLAG (human DAP12 with a FLAG epitope tag at the N terminus) (receptor, not shown: small tags and cut ends)
chain: QAQSDCSCSTVSPGVLAGIVMGDLVLTVLIALAVYFLGRLVPRGRGAAEAATRKQRITETESPYQELQGQRSDVYSDLNTQRPYYK
notes: Made as CD8 leader, FLAG, then DAP12 without its own leader; Runs as a disulfide-bonded homodimer on the cell surface; also called FLAG-DAP12
For the molecule B1, the binding result in assay [1] is “binds”.

B2: D-A transmembrane FLAG-DAP12 mutant receptor (receptor, not shown: small tags and cut ends)
chain: B1 chain with D23A
notes: also called mutant DAP12 protein
Turning to B2, the binding result with KIR2DS2 is recorded as “no binding”.

B3: epitope-tagged mouse DAP12 (DAP12-FLAG) (receptor, not shown: small tags and cut ends)
chain: AQSDTFPRCDCSSVSPGVLAGIVLGDLVLTLLIALAVYSLGRLVSRGQGTAEGTRKQHIAETESPYQELQGQRPEVYSDLNTQRQYYR
notes: Limits of the construct are not described; also called mouse DAP12-FLAG; FLAG-tagged form of mouse DAP12
Take B3: the binding result (with Ly49D; in assay [2]) was “binds” in each case.
